Patent US20240239894A1 (AstraZeneca / MedImmune, published 2024)

Assays:
[1] = target: T1, Cyno B7-H4-Fc (Cyno B7H4 ECD, FcTM_6His) (cynomolgus monkey); assay: ELISA, absorbance 450 nm, Cyno B7H4 (ECD) Fc TM 6H; x axis printed as antigen concentration (nM)
T1 construct: extracellular domain; also called cynomolgus B7-H4-Fc

[2] = target: T2, Human B7H4 (ECD) Fc TM 6H (human, UniProt Q7Z7D3); assay: ELISA, absorbance 450 nm, Human B7H4 (ECD) Fc TM 6H; x axis printed as antigen concentration (nM)
T2 construct: ECD, native leader
T2 sequence (Q7Z7D3 whole entry, looked up): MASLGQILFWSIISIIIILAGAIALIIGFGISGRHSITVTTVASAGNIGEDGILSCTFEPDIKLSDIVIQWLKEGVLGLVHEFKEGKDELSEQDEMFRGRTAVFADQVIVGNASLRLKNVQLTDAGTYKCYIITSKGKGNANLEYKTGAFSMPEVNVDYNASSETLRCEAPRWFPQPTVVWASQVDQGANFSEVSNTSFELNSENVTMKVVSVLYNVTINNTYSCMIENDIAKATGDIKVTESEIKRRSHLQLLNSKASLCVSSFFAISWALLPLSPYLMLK

[3] = target: T3, Human B7-H4-Fc (Human B7H4 ECD, Fc_6His) (human); assay: ELISA on coated human B7H4/Fc, absorbance 450 nm, [IgG] 0.006 to 100 nM
T3 construct: also called FcHis6 tagged human B7-H4
T3 sequence (Q7Z7D3 whole entry, looked up): T2 sequence (Q7Z7D3 whole entry, looked up)

B1: E02-GL-maia (antibody, human IgG1, kappa)
heavy: QVQLQQWGAGLLKPSETLSLACTVYGGSFSGYYWNWIRQPPGKGLEWIGEINHSGSTSYNPSLKSRVTISVDTSKNQFSLKLSSVTAADTAVYYCARVLYNWNVDSWGQGTLVTVSSASTKGPSVFPLAPSSKSTSGGTAALGCLVKDYFPEPVTVSWNSGALTSGVHTFPAVLQSSGLYSLSSVVTVPSSSLGTQTYICNVNHKPSNTKVDKRVEPKSCDKTHTCPPCPAPELLGGPSCVFLFPPKPKDTLMISRTPEVTCVVVDVSHEDPEVKFNWYVDGVEVHNAKTKPREEQYNSTYRVVSVLTVLHQDWLNGKEYKCKVSNKALPAPIEKTISKAKGQPREPQVYTLPPSREEMTKNQVSLTCLVKGFYPSDIAVEWESNGQPENNYKTTPPVLDSDGSFFLYSKLTVDKSRWQQGNVFSCSVMHEALHNHYTQKSLSLSPGK
light: DIQMTQSPSSLSASVGDRVTITCRASQDIRNDVGWYQQKPGKAPKRLIYAASRLQSGVPSRFSGSGSGTEFTLTISSLQPEDFATYYCLQHNSYPRTFGQGTKVEIKRTVAAPSVFIFPPSDEQLKSGTASVVCLLNNFYPREAKVQWKVDNALQSGNSQESVTEQDSKDSTYSLSSTLTLSKADYEKHKVYACEVTHQGLSSPVTKSFNRGEC
notes: Maia format: cysteine insertion in the IgG1 constant region; also called germlined (GL) Maia format mAb
[1]
  EC50 (read off the curve): ~10 nM
[2]
  EC50 (read off the curve): ~10 nM

B2: E02-GL (ZY0EQD_E02, germlined) (antibody, V domains shown)
VH: QVQLQQWGAGLLKPSETLSLACTVYGGSFSGYYWNWIRQPPGKGLEWIGEINHSGSTSYNPSLKSRVTISVDTSKNQFSLKLSSVTAADTAVYYCARVLYNWNVDSWGQGTLVTVSS
VL: DIQMTQSPSSLSASVGDRVTITCRASQDIRNDVGWYQQKPGKAPKRLIYAASRLQSGVPSRFSGSGSGTEFTLTISSLQPEDFATYYCLQHNSYPRTFGQGTKVEIK
notes: AF647-labelled in flow cytometry; also called EQD-E02_GL; ZY0EQD-E02-GL
[3]
  EC50 (read off the curve): ~0.5 nM
